Data taken from patent publication US20090035321A1, “Intercellular adhesion molecules and their binding ligands” (Boehringer Ingelheim Pharmaceuticals, Inc., published 2009).

Biological target: ICAM-1 D203TQ/TAD (human, UniProt P05362)
Test: 35S-HRV14 on COS cells

B1: human rhinovirus 14 (HRV14) (other)
chain: GAQVSTQKSGSHENQNILTNGSNQTFTVINYYKDAASTSSAGQSLSMDPSKFTEPVKDLMLKGAPALNSPNVEACGYSDRVQQITLGNSTITTQEAANAVVCYAEWPEYLPDVDASDVNKTSKPDTSVCRFYTLDSKTWTTGSKGWCWKLPDALKDMGVFGQNMFFHSLGRSGYTVHVQCNATKFHSGCLLVVVIPEHQLASHEGGNVSVKYTFTHPGERGIDLSSANEVGGPVKDVIYNMNGTLLGNLLIFPHQFINLRTNNTATIVIPYINSVPIDSMTRHNNVSLMVIPIAPLTVPTGATPSLPITVTIAPMCTEFSGIRSKSIVPQGLPTTTLPGSGQFLTTDDRQSPSALPNYEPTPRIHIPGKVHNLLEIIQVDTLIPMNNTHTKDEVNSYLIPLNANRQNEQVFGTNLFIGDGVFKTTLLGEIVQYYTHWSGSLRFSLMYTGPALSSAKLILAYTPPGARGPQDRREAMLGTHVVWDIGLQSTIVMTIPWTSGVQFRYTDPDTYTSAGFLSCWYQTSLILPPETTGQVYLLSFISACPDFKLRLMKDTQTISQTVALTEGLGDELEEVIVEKTKQTVASISSGPKHTQKVPILTANETGATMPVLPSDSIETRTTYMHFNGSETDVECFLGRAACVHVTEIQNKDATGIDNHREAKLFNDWKINLSSLVQLRKKLELFTYVRFDSEYTILATASQPDSANYSSNLVVQAMYVPPGAPNPKEWDDYTWQSASNPSVFFKVGDTSRFSVPYVGLASAYNCFYDGYSHDDAETQYGITVLNHMGSMAFRIVNEHDEHKTLVKIRVYHRAKHVEAWIPRAPRALPYTSIGRTNYPKNTEPVIKKRKGDIKSY
modifications: [35S]-Met labeled
Q: For B1, which “HRV Binding %” value is on record?
A: 111 % of wild type
